Source: patent publication US20200362047A1 (CRESCENDO BIOLOGICS, published 2020)

T1: rhesus CD137Fc recombinant protein (Sino Biologicals cat no. 90847-K02H) (rhesus; human, UniProt H9Z8K9 24-186)
T1 construct: Bought protein; also called rhesus CD137-human IgG1 Fc tagged protein; not shown: human IgG1 Fc tag
T1 sequence: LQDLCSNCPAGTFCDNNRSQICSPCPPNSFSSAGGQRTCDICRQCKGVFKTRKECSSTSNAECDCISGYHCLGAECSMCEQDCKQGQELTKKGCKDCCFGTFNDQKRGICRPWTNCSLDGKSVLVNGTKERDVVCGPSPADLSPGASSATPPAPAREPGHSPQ


Columns and labels:
[1] = target: T2, human CD137-human Fc chimeric protein (Acro Biosystems cat no. 41B-H5258) (human, UniProt Q07011 24-186); experiment: BLI (Octet RED384), CD137-Fc amine-coupled to AR2G sensors, 1:1 model
T2 construct: Bought protein; The Octet Protein G and Biacore experiments name no catalogue number; also called human CD137Fc recombinant protein; human CD137-Fc recombinant protein; not shown: human IgG1 Fc tag
Experimental: (§1) The kinetics of monovalent and bispecific Humabody VH were determined on a ForteBio Octet RED 384 instrument. To study the interaction with the antigens, CD137-Fc tag protein (Acro Biosystems cat no. 41B-H5258) or PSMA-his (R&D Systems cat no. 4234-ZN) was immobilised onto AR2G biosensors (ForteBio cat no. 18-5082) by amine coupling. Monovalent VH and bispecific molecules were serially diluted (typically 1:2 dilution series starting between 12-25 nM, at the highest concentration) in kinetics buffer (0.1% BSA, 0.02% Tween, 1×PBS) and binding to the immobilised proteins was studied during the association and dissociation phases. PSMA binding was measured using 180 seconds association and 600 seconds dissociation phases. CD137 binding was measured 180 seconds association and 600 seconds dissociation phases. Reference subtracted data were fitted to a 1:1 binding model using the ForteBio Octet Data Analysis software.

[2] = target: T3, human CD137 expressed on the surface of CHO cells (human, UniProt Q07011 24-255); experiment: FMAT, CHO human CD137 cells
T3 construct: Also used for the Jurkat reporter cells that express human CD137 (functional rows); also called CHO human CD137 cells; CHO huCD137
Experimental: (§2) Binding of His-tagged molecules to CHO human CD137, CHO parent, CHO human PSMA, DU145 PSMA and DU145 parent cells was assessed using Fluorescence Microvolume Assay Technology (FMAT). All reagents were prepared in FMAT assay buffer (pH 7.4) containing PBS, 0.1% Bovine Serum Albumin, 0.05% Sodium Azide. Serially diluted samples were transferred into 384 well black clear-bottomed assay plates (Costar cat. no. 3655) and incubated for a minimum of 2 hours at room temperature with 1.5 nM Anti-His (Millipore cat. no. 05-949), […] Goat Anti-Mouse Alexa Fluor-488 (Jackson ImmunoResearch cat. no. 115-545-071) and 2000 cells/well pre-stained with DRAQ5 (Thermo Scientific cat. no. 62251). Fluorescence emission was then measured on the TTP Mirrorball plate reader in the FL2 (502 nm-537 nm) and FL5 (677-800 nm) channels following excitation at 488 nm and 640 nm. Data was gated on FL5 perimeter and peak intensity and the FL2 median mean fluorescence intensity of the gated data used for determination of VH binding. Monovalent CD137 specific Humabody® VH, bispecific and trispecific molecules with a CD137 binding arm bound to CHO CD137 expressing cells. Monovalent PSMA specific Humabody® VH, bispecific and trispecific molecules with a PSMA binding arm bound to PSMA expressing cells.

[3] = target: T3, human CD137 expressed on the surface of …; experiment: FMAT ligand inhibition, CD137 Ligand on CHO human CD137 cells
Experimental: In parallel to the binding assay, periplasmic extracts were tested for their ability to inhibit the interaction of human CD137 ligand protein with CHO human CD137 cells in an FMAT format. Total binding controls containing diluted periplasmic extract sample buffer and non-specific binding controls containing excess non-Fc tagged competitor were set up on each plate for data normalisation. Fluorescence signal was measured using the TTP Mirrorball and the FL2 median mean fluorescence intensity of gated used for the data normalisation. The data was expressed as a % of the total binding control (% control) after subtraction of the background signal determined from the non-specific binding control wells.
The ability of purified Humabody VH to inhibit the binding of CD137 Ligand to CHO human CD137 cells was measured in the FMAT ligand inhibition assay essentially as described in Example 6. VH inhibited the binding of human CD137 Ligand to human CD137.

[4] = target: T4, human PSMA expressed on cells (human, UniProt Q04609 1-750); experiment: FMAT, CHO human PSMA cells
T4 construct: One molecule for both cell lines (CHO human PSMA, DU145 PSMA); the cell line stands under assay; also called CHO human PSMA; CHO PSMA
Experimental: as §2

[5] = target: T5, CD137 on pre-stimulated human CD8+ T cells (human, UniProt Q07011 24-255); experiment: flow cytometry, PMA/ionomycin-stimulated human CD8+ T cells, mean of 2-3 donors
T5 construct: also called pre-stimulated CD8+ cells; primary T cells
Experimental: Binding to primary T cells was measured using flow cytometry. Peripheral blood mononuclear cells (PBMCs) were isolated from human blood by density gradient centrifugation then CD8+ T cells purified using a negative selection isolation kit according to the manufacturer's protocol (Miltenyi Biotech cat no 130-042-401). T-cells were stimulated PMA/Ionomycin for 48-72 hours in RPMI media supplemented with 10% FBS, 2 mM Glutamine, 1× Pen/Strep. Cells were transferred into 96 well plates, blocked for 10 mins with staining buffer (PBS/1% BSA/0.05% Sodium Azide) then incubated with serially diluted VH in staining buffer (PBS/1% BSA) for 30 mins-1 hour at 4° C. Cells were washed by centrifugation then VH binding detected using Anti His antibody (Millipore 05-949) and Goat Anti Mouse Alexa Fluor-488 (Jackson ImmunoResearch cat no. 115-545-071). A Live Dead near IR stain (Molecular Probes cat no. L10119) was used for discrimination of live cells. After further washing cells were fixed and fluorescence measured by flow cytometry.

[6] = target: T4, human PSMA expressed on cells; experiment: FMAT, DU145 PSMA cells
Experimental: as §2

[7] = target: T4, human PSMA expressed on cells; experiment: dual binding cell ELISA: the titrated step is the binding of the bispecific to CHO human PSMA cells; readout is bound CD137huFc (fixed 1 nM) with anti human Fc-HRP, so the value reflects dual engagement
Experimental: Dual target engagement of CD137 and PSMA by the bispecific molecules was assessed using an ELISA format. CHO-PSMA cells (20000/well) were seeded into 96 well plates (Greiner cat no. 353872) in Hams F12 supplemented with L-Glutamine+Blasticidin+Tetracycline and incubated at 37° C. with 5% CO₂ overnight. All subsequent steps were performed at room temperature and included washes with PBS between each step. Plates were blocked with PBS/0.1% BSA for 1 hour then serially diluted Humabody® VH were added and allowed to bind for 1 hour. Following removal of unbound VH, 1 nM CD137huFc (Acro Biosystems cat no. 41B-H5258) was added to the wells and incubated for 1 hour. A 1:3000 dilution of Anti-huFc-HRP (Jackson ImmunoResearch cat no. 109-035-098) was subsequently added for 1 hour and plates developed by addition of TMB. The reaction was stopped by addition of 0.5M sulphuric acid and plates read on BMG PheraStar at Absorbance 450 nm.

[8] = target: T6, PSMA-his (R&D Systems cat no. 4234-ZN) (human, UniProt Q04609 44-750); experiment: BLI (Octet RED384), PSMA-his amine-coupled to AR2G sensors, 1:1 model
T6 construct: Bought protein; also called Human PSMA; not shown: His tag
Experimental: as §1

[9] = target: T2, human CD137-human Fc chimeric protein …; experiment: SPR (Biacore T200), single cycle kinetics, CD137-Fc captured on Protein G chip, mean ± SD; human CD137Fc
Experimental: (§3) The Biacore T200 instrument was used to study the interaction between VH with human and rhesus CD137-human IgG1 Fc tagged protein by surface plasmon resonance (SPR). Single cycle kinetics assays used to evaluate the kinetics and affinity of the interaction. Experiments were performed at 25° C. in HBS-EP+ assay buffer with a flow rate of 30 μl/minute. A Protein G chip was used to capture the Fc tagged recombinant CD137 diluted to 2 μg/ml to one of the flow cells over 7 seconds. A second flow cell without any captured CD137 was used as the reference cell. A five point, three-fold dilution series of VH was made with a top concentration of 60 nM. The binding kinetics were followed by flowing these over the chip surface. The contact time for each of the binding steps was 180 seconds and the dissociation step was 1800 and 3600 seconds for rhesus and human CD137 respectively. After each run, the sensors were regenerated with glycine pH 1.5 to remove the captured CD137. The data was fitted to a 1:1 binding model after double reference subtraction using the Biacore T200 Evaluation software.

[10] = target: T1, rhesus CD137Fc recombinant protein …; experiment: SPR (Biacore T200), single cycle kinetics, rhesus CD137-Fc captured on Protein G chip, mean ± SD; rhesus CD137Fc
Experimental: as §3

T3 sequence (Q07011 24-255 limits assumed): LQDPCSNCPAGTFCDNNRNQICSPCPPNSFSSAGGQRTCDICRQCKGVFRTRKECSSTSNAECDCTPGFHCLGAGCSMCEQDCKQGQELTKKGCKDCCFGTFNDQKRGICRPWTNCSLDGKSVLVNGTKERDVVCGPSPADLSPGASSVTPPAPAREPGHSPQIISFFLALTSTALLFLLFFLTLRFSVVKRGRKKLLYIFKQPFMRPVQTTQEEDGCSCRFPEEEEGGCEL
T4 sequence (Q04609 whole entry): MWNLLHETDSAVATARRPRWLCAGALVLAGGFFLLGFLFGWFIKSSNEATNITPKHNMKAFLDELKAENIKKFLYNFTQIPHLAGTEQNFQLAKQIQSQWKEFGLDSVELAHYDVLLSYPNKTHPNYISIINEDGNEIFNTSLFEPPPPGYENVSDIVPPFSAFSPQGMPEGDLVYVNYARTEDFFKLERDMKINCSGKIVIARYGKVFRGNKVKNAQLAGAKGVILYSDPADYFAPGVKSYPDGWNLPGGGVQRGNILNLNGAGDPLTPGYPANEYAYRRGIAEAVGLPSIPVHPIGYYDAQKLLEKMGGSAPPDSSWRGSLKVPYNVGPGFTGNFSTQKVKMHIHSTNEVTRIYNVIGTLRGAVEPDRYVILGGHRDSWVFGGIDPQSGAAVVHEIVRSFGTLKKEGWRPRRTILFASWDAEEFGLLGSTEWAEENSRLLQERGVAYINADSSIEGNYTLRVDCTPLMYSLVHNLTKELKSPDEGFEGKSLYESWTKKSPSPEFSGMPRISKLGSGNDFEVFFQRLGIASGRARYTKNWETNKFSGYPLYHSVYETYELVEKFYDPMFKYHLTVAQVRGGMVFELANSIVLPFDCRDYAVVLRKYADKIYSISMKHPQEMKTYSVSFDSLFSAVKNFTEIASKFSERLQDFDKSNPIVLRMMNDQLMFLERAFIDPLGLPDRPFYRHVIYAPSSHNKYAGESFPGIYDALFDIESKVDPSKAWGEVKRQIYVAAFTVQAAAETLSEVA
T6 sequence (Q04609 44-750 limits assumed): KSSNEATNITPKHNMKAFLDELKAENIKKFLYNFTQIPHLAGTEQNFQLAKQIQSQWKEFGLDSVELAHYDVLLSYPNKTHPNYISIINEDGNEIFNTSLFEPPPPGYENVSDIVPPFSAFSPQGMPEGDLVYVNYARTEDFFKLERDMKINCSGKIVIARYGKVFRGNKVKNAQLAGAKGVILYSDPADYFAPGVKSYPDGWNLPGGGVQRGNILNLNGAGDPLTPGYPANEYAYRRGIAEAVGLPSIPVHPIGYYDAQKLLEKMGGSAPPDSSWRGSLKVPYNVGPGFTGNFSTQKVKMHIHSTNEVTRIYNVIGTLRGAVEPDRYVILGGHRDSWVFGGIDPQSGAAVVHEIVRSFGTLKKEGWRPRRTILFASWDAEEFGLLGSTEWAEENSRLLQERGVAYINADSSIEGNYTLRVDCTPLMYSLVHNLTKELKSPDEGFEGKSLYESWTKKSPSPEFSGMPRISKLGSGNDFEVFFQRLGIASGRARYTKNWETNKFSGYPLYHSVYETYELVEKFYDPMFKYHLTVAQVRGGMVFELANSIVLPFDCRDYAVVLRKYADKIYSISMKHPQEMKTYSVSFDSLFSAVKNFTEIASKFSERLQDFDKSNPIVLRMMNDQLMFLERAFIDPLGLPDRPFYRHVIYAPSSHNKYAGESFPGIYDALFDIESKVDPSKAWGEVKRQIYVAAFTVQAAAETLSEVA
T5 sequence (Q07011 24-255 limits assumed): as the sequence (Q07011 24-255 limits assumed) above

Kd [1] [nM] | koff [1] [s⁻¹] | kon [1] [M⁻¹ s⁻¹] | EC50 [2] [nM] | IC50 [3] [nM] | EC50 [4] [nM] | EC50 [5] [nM] | EC50 [6] [nM] | EC50 (read off the curve) [7] [nM] | Kd [8] [nM] | koff [8] [s⁻¹] | kon [8] [M⁻¹ s⁻¹] | Kd [9] [nM] | koff [9] [s⁻¹] | kon [9] [M⁻¹ s⁻¹] | Kd [10] [nM] | koff [10] [s⁻¹] | kon [10] [M⁻¹ s⁻¹] | Binder
4.8 | 0.0026 | 580000 | 0.97 | 13 | 0.28 | 3 | 0.39 | ~1 | 0.66 | 0.00033 | 500000 |  |  |  |  |  |  | 4.1(PSMA-binding VH)-6GS-2.1 (bispecific antibody, tandem VH, PSMA x CD137; also called 4.1-6GS-2.1; not shown: His tag) EVQLVESGGGVVQPGRSLRLSCAASGFSFSGYGMHWVRQAPGKGLEWVAYISYDGSNKYYADSVKGRFTISRDNSKNTLYLQMNSLRAEDTAVYYCAKDPAWGLRLGESSSYDFDIWGQGTMVTVSSGGGGSGGGGSGGGGSGGGGSGGGGSGGGGSEVQLVESGGGLVKPGGSLRVSCAASGFTFSDYYMSWFRQAPGKGLEWVSYISGSGDIIDYADSVKGRFTISRDNAKNSLYLQMNNLRAEDTAVYHCAREDSRLTGTTDFDNWGQGTLVTVSS
 |  |  | 0.09 | 0.73 |  |  |  |  |  |  |  | 0.085 | 0.0003 | 3.6e+06 | 0.27 | 0.00028 | 1.1e+06 | Humabody VH 1.113 (VHH, human single VH domain) VH: EVQLVESGGGLVQPGGSLRLSCAASGFTLSNYWMNWVRQAPGKGLEWVANINQDGSERYYVDSVKGRFTISRDNAKNSLYLQMNSLRAEDTAVYYCARGGEGYGVDHYGLDVSGQGTTVTVSSHHHHHH
0.73 | 0.00031 | 410000 | 0.43 | 2.5 | 0.19 | 0.73 | 0.21 | ~0.8 | 1.3 | 0.00054 | 430000 |  |  |  |  |  |  | 4.1(PSMA-binding VH)-6GS-1.1 (bispecific antibody, tandem VH, PSMA x CD137; also called 4.1-6GS-1.1; not shown: His tag) EVQLVESGGGVVQPGRSLRLSCAASGFSFSGYGMHWVRQAPGKGLEWVAYISYDGSNKYYADSVKGRFTISRDNSKNTLYLQMNSLRAEDTAVYYCAKDPAWGLRLGESSSYDFDIWGQGTMVTVSSGGGGSGGGGSGGGGSGGGGSGGGGSGGGGSEVQLVESGGGLVQPGGSLRLSCAASGFTFSSHWMTWFRQAPGKGLEWVAHIKEDGSEKYYEDSVEGRFTVSRDNAKNSVYLQMNSLRAEDTAVYYCARGGDGYSDSHFGVDVWGQGTTVTVSS
